Assay results reported in patent CN113372440A (SUN YAT SEN UNIV CANCER CENTER SUN YAT SEN UNIV AFFILIATED …, dated 2021).
Where two headings read alike, the source gives them in different places.

Key:
[1] = target: T1, gLgH蛋白 (recombinant single-chain EBV M81 gL ectodomain - linker - gH ectodomain - 6xHis) (Epstein-Barr virus (M81 strain, …))
[2] = target: gH/gL glycoprotein on EBV virions produced by AKATA cells (Epstein-Barr virus, UniProt P03231 19-706; P03212 23-137); assay: cell-based or functional assay
[3] = target: T1, gLgH蛋白 (recombinant single-chain EBV …); assay: ELISA, gLgH coated at 2 μg/mL, antibody titrated from 1 μg/mL, HRP goat anti-mouse IgG (Fig. 1)
[4] = target: T1, gLgH蛋白 (recombinant single-chain EBV …); assay: SPR by the method of Example 4 (Biacore 8K, Protein A capture, gLgH as analyte) (Fig. 9)
[5] = target: T1, gLgH蛋白 (recombinant single-chain EBV …); assay: ELISA by the method of Example 1 step 5, gLgH coated (Fig. 8)

B1: 单克隆抗体6H2 (anti-EBV gLgH mouse monoclonal antibody 6H2) (antibody, V domains shown)
VH: EVKLLESGGGLVQPGGSLKLSCAASGFDFSRYWMTWVRQAPGQGLEWIGEINPDSSTINYTPSLKDKFIISRDNAKNTLYLQVSKLRSEDTALYYCARSPYYYGSSYDVWGAGTAVTVSS
VL: DIVMSQSPSSLAVSAGEKVTMNCKSSQSLLNSRTRKNYLAWYQQKPGQSPKLLIYWASTRESGVPDRFTGSGSGTDFTLTISSVQAEDLAFYYCKQSYNLPTFGGGTKLEIK
notes: also called 单抗6H2; 中和抗体6H2
For B1, which Kd [1] is on record?
Its Kd is 2.8 nM.

What about the “IC50 in the epithelial cell infection model (HNE1 cells, GFP-EBV, inhibition of GFP-positive cells)” value [2] of the same binder?
Its value is 0.108 µg/mL.

And the EC50 [3]?
Its EC50 is 0.0134 µg/mL.

B2: 嵌合单抗C6H2 (mouse 6H2 variable regions on human IgG1/kappa constant regions) (antibody, V domains shown)
VH: B1 VH
VL: DIVMSQSPSSLAVSAGEKVTMNCKSSQSLLNSRTRKNYLAWYQQKPGQSPKLLIYWASTRESGVPDRFTGSGSGTDFTLTISSVQAEDLAFYYCKQSYNLPTFGGGTKLEIKR
notes: also called 嵌合抗体C6H2
What does the source list for B2?
Kd [4]: 11.5 nM; EC50 [5]: 0.0266 µg/mL
